# Measurements from patent US20240174744A1 (SCIRHOM, published 2024).
# Numbering of substitutions follows the chain as printed.
# T1: hiR2-FL-P533-T7 (human iRhom2 full length with deletion of P533, 3 x T7 tag) (human, UniProt Q6PJF5 1-856)
# T1 construct: The change is a deletion of one residue, not a substitution
# T1 sequence: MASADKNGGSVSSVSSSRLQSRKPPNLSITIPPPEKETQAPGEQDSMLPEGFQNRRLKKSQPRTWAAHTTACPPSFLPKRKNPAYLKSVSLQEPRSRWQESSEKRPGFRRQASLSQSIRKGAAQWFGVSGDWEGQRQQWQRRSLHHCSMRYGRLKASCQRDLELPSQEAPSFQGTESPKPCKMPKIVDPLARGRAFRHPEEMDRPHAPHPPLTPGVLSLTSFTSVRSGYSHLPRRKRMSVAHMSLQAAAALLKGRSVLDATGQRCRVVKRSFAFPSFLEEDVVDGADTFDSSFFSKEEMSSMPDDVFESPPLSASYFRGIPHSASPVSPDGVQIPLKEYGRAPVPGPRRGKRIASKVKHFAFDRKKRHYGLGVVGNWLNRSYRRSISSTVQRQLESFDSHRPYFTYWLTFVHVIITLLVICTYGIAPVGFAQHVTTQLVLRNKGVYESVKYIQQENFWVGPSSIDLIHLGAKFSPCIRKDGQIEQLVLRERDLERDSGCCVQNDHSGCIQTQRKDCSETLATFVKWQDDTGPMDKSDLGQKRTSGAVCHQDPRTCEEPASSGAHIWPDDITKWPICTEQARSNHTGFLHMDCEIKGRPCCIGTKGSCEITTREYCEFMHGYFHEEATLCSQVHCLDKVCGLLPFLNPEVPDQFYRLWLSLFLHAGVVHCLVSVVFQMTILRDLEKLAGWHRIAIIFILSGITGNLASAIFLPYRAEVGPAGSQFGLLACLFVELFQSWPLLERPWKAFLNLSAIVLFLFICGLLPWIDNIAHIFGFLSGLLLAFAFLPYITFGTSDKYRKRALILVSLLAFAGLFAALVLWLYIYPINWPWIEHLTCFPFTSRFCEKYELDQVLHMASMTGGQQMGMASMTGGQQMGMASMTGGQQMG
# B1: antibody 34 (antibody, V domains shown)
# VH: QVTLKESGPGILQPSQTLSLTCSFSGFSLSTFSLGVGWIRQSSGKGLEWLAHIWWDDEKYYNPALKSRLTISKDTSKNQVFLKIANVDAADTATYYCARAYYSKSYYALDYWGQGTSVTVSS
# VL: DIQMTQSPSSLSASLGERVSLTCRASQEISGYLSWLQQKPDGTIKRLIYAASTLDSGVPKRFSGSRSGSDYSLAISSLESEDFADYYCLQYANFPFTFGSGTKLEIK
# notes: Mouse IgG, kappa light chain; also called clone #34; m34
# B2: antibody 16 (antibody, V domains shown)
# VH: QVTLKESGPGILQPSQTLSLTCSFSGFSLSTFALGVGWIRQPSGRGLEWLAHIWWDDDKYYNPALKSRLTISKDTSKNHVFLKIANVDTADTATYYCARITTYYYGMDYWGQGTSVTVSS
# VL: DIVLSQSPATLSVTPGDSVSLFCRASQSIGNHLHWYQQESHASPRLLIKYASQSISGIPSRFSGSGSGTDFTLSINSVETEDFGMYFCQQSYNWPLTFGAGTKLELK
# notes: Mouse IgG, kappa light chain; also called clone #16; m16
# B3: antibody 3 (antibody, V domains shown)
# VH: QVTLKESGPGILQPSQTLSLTCSFSGFSLTTFAMGIGWVRQPSGKGLEWLAHIWWDGEKYNNPVLKSRLTISKDTSKNQVFLRIANVDTPDTATYYCARISSIYYIIDNWGQGTSVTVSS
# VL: B2 VL with S5T, D17H, F22S, G30S, H32N, Q38K, E39K, A42E, A51V
# notes: Mouse IgG, kappa light chain; also called clone #3; purified antibody 3
# B4: antibody 43 (antibody, V domains shown)
# VH: QVALKESGPGILQPSQTLSLTCSFSGFSLSTFGMGVGWIRQSSGKGLEWLANIWWDDDKYYNPALKSRLTISKDASKNQAFLKIANVDTADTATYYCARIGNYGSNYWYFDVWGTGTTVTVSS
# VL: QIVLTQSPAIMSASPGERVTMTCSANSRISYMYWYQQKPGSSPRLLIYDTSNLASGVPVRFSGSGSGTSYSLTISRMEAEDAATYNCQQWSSYPLTFGAGTKLELK
# notes: Mouse IgG, kappa light chain; also called clone #43
# B5: antibody 44 (antibody, V domains shown)
# VH: B4 VH with A3T, S42P, G44E, N52H, A75T, A80I, A85T, D91E, A98S
# VL: QIVLTQSPAVMSASPGEKVTMTCTASSSVYYMYWYQQTPGSSPRLLIYDTSNLASGVPVRFSGSGSGTSYSLTISRMEAEDAATYYCQQWNTYPLTFGAGTKLELK
# notes: Mouse IgG, kappa light chain; also called clone #44; m44
# B6: antibody 5 (antibody, V domains shown)
# VH: B4 VH with A3T, S42P, N52H, D58E, P63S, D74A, A75T, G101S, D111N
# VL: QVVLTQSPALMSASPGEKVTMTCSAGSSVSCMYWYQQKPGSSPRVLIYDTSNLASGVPARFTGSGSGTSYSLTISRMEAEDAASYYCQQWNSYPLTFGAGTKLELK
# notes: Mouse IgG, kappa light chain; also called clone #5; purified antibody 5
# B7: antibody 42 (antibody, V domains shown)
# VH: B4 VH with A3T, F24L, M34R, S42P, N52H, D58E, A75T, A80V, K83R, G101Q
# VL: B4 VL with Q1L, R18K, S24G, N26T, Y33F, L45V, M77V, A82V, N86Y, S91N
# notes: Mouse IgG, kappa light chain; also called clone #42; m42
# B8: antibody 22 (antibody, V domains shown)
# VH: B4 VH with A3T, S42P, N52H, D58E, P63S, D74A, A75T, A80V, G101S, D111N
# VL: B6 VL with C31Y, S84T
# notes: Mouse IgG, kappa light chain; also called clone #22; m22
# Biological target: T1, hiR2-FL-P533-T7 (human iRhom2 full …)
# Test: FACS on cells of the row P533-, vs human iR2 wild type = 100%
# Text: In brief, immortalized MEF-DKO-hiR2-FL-WT-T7 cells, MEF-DKO-miR2-FL-WT-T7 cells and MEF-DKO-hiR2-FL-R441K-T7, MEF-DKO-hiR2-FL-K443R-T7, MEF-DKO-hiR2-FL-V459I-T7, MEF-DKO-hiR2-FL-G481Q-T7, MEF-DKO-hiR2-FL-L488R-T7, MEF-DKO-hiR2-FL-L493I-T7, MEF-DKO-hiR2-FL-D496T-T7, MEF-DKO-hiR2-FL-H505R-T7, MEF-DKO-hiR2-FL-Q512L-T7, MEF-DKO-hiR2-FL-R513K-T7, MEF-DKO-hiR2-FL-D528N-T7, MEF-DKO-hiR2-FL-P533-T7, MEF-DKO-hiR2-FL-M534S-T7, MEF-DKO-hiR2-FL-G540S-T7, MEF-DKO-hiR2-FL-R543Q-T7, MEF-DKO-hiR2-FL-T544P-T7, MEF-DKO-hiR2-FL-G546A-T7, MEF-DKO-hiR2-FL-A547V-T7, MEF-DKO-hiR2-FL-R582Q-T7, MEF-DKO-hiR2-FL-F588L-T7, MEF-DKO-hiR2-FL-M591I-T7, MEF-DKO-hiR2-FL-E594K-T7, MEF-DKO-hiR2-FL-E626D-T7, MEF-DKO-hiR2-FL-L657I-T7, and MEF-DKO-hiR2-FL-H835Y-T7 cells were harvested with 10 mM EDTA in PBS, washed and resuspended in FACS buffer (PBS, 3% FBS, 0.05% sodium azide), and seeded in Nunc U-bottom 96-well plates (Thermo Fisher Scientific, USA) at approximately 3×10⁵ cells per well. To pellet cells and remove supernatants, the plates were centrifuged at 1,500 rpm and 4° C. for 3 minutes. For primary staining, cells were resuspended in 100 μl per well of either FACS buffer alone (controls) or the purified antibodies 3, 5, 16, 22, 34, 42, 43, 44, 48, and 50 of the present disclosure at 3 μg/ml FACS buffer and incubated on ice for 1 hour. Afterwards, plates were centrifuged at 1,500 rpm and 4° C. for 3 minutes and washed twice with 200 μl per well of FACS buffer. For secondary staining, cells were spun down and resuspended in 100 μl per well of PE-conjugated goat anti-mouse IgG F(ab′)2 detection fragment (Dianova, Germany) diluted 1:100 in FACS buffer. Protected from light, the cell suspensions were incubated on ice for 1 hour. Plates were then centrifuged at 1,500 rpm and 4° C. for 3 minutes and washed three times with 200 μl per well of FACS buffer. Finally, cells were resuspended in 150 μl per well of FACS buffer and analyzed using a BD Accuri™ C6 Plus flow cytometer (Becton Dickinson, Germany).
row,Binder,grade of loss of binding vs wild type
1,B1,3 grade (3 => 95% loss of binding vs wild type)
2,B2,3 grade (3 => 95% loss of binding vs wild type)
3,B3,3 grade (3 => 95% loss of binding vs wild type)
4,B4,3 grade (3 => 95% loss of binding vs wild type)
5,B5,3 grade (3 => 95% loss of binding vs wild type)
6,B6,3 grade (3 => 95% loss of binding vs wild type)
7,B7,3 grade (3 => 95% loss of binding vs wild type)
8,B8,3 grade (3 => 95% loss of binding vs wild type)
